The source of these data is patent US20260258115A1 (MAPP BIOPHARMACEUTICAL, published 2026).

One may read the Kd as the concentration at which binding is half-saturated. Lower therefore signals tighter binding.

The labels stand for the following.
B1: ADI-21046 (antibody, V domains shown)
VH: EVQLVESGAEAKKPGESLRISCTVSGYSFSKYWVGWVRQTPGKGLEWMGIIDPTDSDTRYSPSFQGQVTISVDNSINTAYLQWSSLKASDTAIYYCARRGQAKCVGNCPRDFMDVWGKGTTVTVSS
VL: SYVLTQPPSVSGAPGQRVTISCAGSSSNIGAGYEVHWYQQLPGTAPKLLIYANRNRPSGVPDRFSGSRSGTSASLAISGLQAEDEADYYCQSYDNNLSGSWVFGGGTKLTVL
B2: ADI-21037 (antibody, V domains shown)
VH: QVQLVQSGGGVVQPGRSLRLSCAASGFPFSSYAMHWVRQAPGKGLEWVAVIWYPGGEKYSADSVTGRFTISRDNSKNTLYLQMSSLRVEDTAVYYCARRSVGAFDYWGQGTLVTVSS
VL: DIQMTQSPLSLPVTPGEPASISCRSSQSLLNSNGYNYLDWYLQKPGQSPQVLIYLGSHRASGVPDRFSGSGSGTDFTLRISRVEAEDVGVYYCMQAVQTPYTFGQGTKVEIK
B3: ADI-21039 (antibody, V domains shown)
VH: EVQLVQSGAEVKKPGASVKVSCKASGYTFISYYIHWVRQAPGQGLEWMGVINPSGGITDYAPKFQGRVSMTRDTSTRTVYLELSSLRSDDTAVYYCARDLCITTSCPRYYDYAWRSYRSEGYFDSWGQGTLVTVSS
VL: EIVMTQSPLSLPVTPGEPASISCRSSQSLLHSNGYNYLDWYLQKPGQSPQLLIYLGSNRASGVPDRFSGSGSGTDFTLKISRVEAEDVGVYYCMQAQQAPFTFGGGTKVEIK
B4: ADI-21043 (antibody, V domains shown)
VH: QVQLVQSGAEVKKPGASVKVSCKASGYTFTSYGITWVRQAPGQGLEWMGWISTYNGKTNYAQKFKGRVTMTTDTSTSTAYVELTSLRSDDTAVYYCAREFPTRIVDSFYMDVWGKGTTVTVSS
VL: SYELTQPPSVSVAPGQTARITCGGSNIGSETVHWYQQKPGQAPVLVVYGDSDRPSGIPERFSGSNSGNTATLTISRVEAGDEADYYCQVWDSRSDDFHVFGSGTKLTVL
B5: ADI-21042 (antibody, V domains shown)
VH: EVQLVESGPRLVKPSQTLSLTCNVSGVPVNTGGYYWSWIRRHPIKGLEWIGYIYYSGSTHYNPSLRGRATMSVDTSKNQFSLRLSSVTAADTAVYYCAKDTITVLRGVAKKGVFDPWGQGILVTVSS
VL: DIQMTQSPSTLSASVGDRVIITCRASQSISSWLAWYQYKPGKAPNLLIYKATTLDSGVPSRFSGSGSGTEFTLTISSLQPDDFATYYCQQYDSYPTFGQGTKVEIK
notes: also called Ab 290
B6: ADI-21054 (antibody, V domains shown)
VH: QVQLVESGGGVVQPGRSLRLSCAASGFSFSNYGMHWVRQAPGKGLEWVVGISFDGSYIFHGGSVTGRFNISRDNSKNTLYLQVNSVRAEDTAVYYCARDPQYYDDWSGYSGLLHYYLYMDVWGKGTTVTVSS
VL: DIQLTQSPSTLSASVGDRVTITCRASQSIGTSLAWYQQIPGKAPKLLIYRASSLESGVPSRFSGGGSGTQFTLTISSLQPDDFATYYCQQYNNYSPTFGQGTKLEIK
B7: ADI-21011 (antibody, V domains shown)
VH: QVQLQESGPGLVKPSETLSLSCTASGDSISDYYWSWIRQPPGKGLEWIGFVSDTWGTNYSPSLTSRVAISLDTSRSQVSLRLRSVTAADTAVYYCVRTHLYDRGGYYLYYFDYWGQGTLVTVSS
VL: DIRMTQSPPSLSASVGDRVTITCRASQRIASYLNWYQQKPDTAPKLLIYAASNLQTGVPSRFSGSGSGTDFTLTISSLQPEDFATYYCQQSYSTPYTFGQGTKLEIK
B8: ADI-21012 (antibody, V domains shown)
VH: QVQLVQSGPAVVKPTQTLTLTCSFSGFSLSTSRMSVSWIRQPPGKALEWLARIDWDGDKYYSTSLKSRLTISKDTSKNQVVLTMTNMDPVDTATYYCARGSYYVSSGYYLNYFDYWGQGTLVTVSS
VL: B7 VL with P9S, A25T, R28T, D41G, T42K, K45N, N53I, S93G, Y96Q, L104V
B9: ADI-21047 (antibody, V domains shown)
VH: QVQLQQWGAGLLKPSETLSLTCAVYGGSFSGKYWSWIRQPPGKGLEWIGEFNHDGTTYYNPSLKSRVTISADTPKNQFSLTLHSVTAADTAVYYCARLTILSDWGQGTLVTVSS
VL: DIRMTQSPSSLSASVGDRVTITCQASQDISNYLHWYQQKPGKAPKLLIYDASNLETGVPSRFSGSGSGTDFTFTIHSLQPEDLATYYCQQYYDLPRTFGQGTKLEIK
B10: ADI-21026 (antibody, V domains shown)
VH: QVQLVQSGPGLVKPSQTLSLTCTVSGVSISSGGFYWSWIRQHPGKGLEWIGHIYYSRSTYYNPSLKSRVTMSLNMSKNQFSLRLSSVTAADTAVYYCARERREWLHGELDYWGQGTTVTVSS
VL: DIQMTQSPDSLAVSLGEGATINCKSSQSVLDSSKNKNYLAWYQQRPGQPPKLLISWASTRESGVPDRFSGSGSGTDFTLTISSLQAEDVAVYSCQQYFSPPATFGQGTKLEIK
B11: ADI-21062 (antibody, V domains shown)
VH: EVQLLESGGGLVKPGGSLRLSCAASGFTFSDYDMIWVRQAPGKGLEWVSSISRGSDYIYYADSLKGRFTISRDNARNSVTLQMNSLRAGDTALYFCARAELLDSGGYYLYYFDHWGQGTLVTVSS
VL: DIRMTQSPSSLSASVGDRVTITCRASQIIASYVNWYQKKPGKAPKVLIYAASRLQNGVPSRFSGSGSGTEFTLTISSLQPEDFATYYCQQSYSTSFTFGQGTKVDIK
notes: also called Ab 310
B12: ADI-21019 (antibody, V domains shown)
VH: EVQLLESGGGLVRPGGSLRLSCAVSGFTFSGNALTWIRRAPGKGLEWVSTIGDSGGGSYYADSVKGRFTISRDNSKSTLYLQMNSLTAEDTAVYYCARDPYGDYRDYYGIDVWGQGTTVTVSS
VL: EIVMTQSPLSLPVTPGEPASISCRSSQSLRHSNGYNYVDWYLQKPGQSPQLLIYLGSNRASGVPDRFRGSGSGTDFTLKISRVEAEDVGVYYCMQALQTPLTFGQGTKVEIK
B13: ADI-21055 (antibody, V domains shown)
VH: EVQLVESGGGVVQPGRSLRLSCVGSGFTFSRYGMQWVRQAPGKGLEWAAVIWNDGSNEHYADSVKGRFTISRDNSKNTMYLQMNSLRAEDTALYYCAREGEYSSSWSHWSYLDLWGRGTLVTVSS
VL: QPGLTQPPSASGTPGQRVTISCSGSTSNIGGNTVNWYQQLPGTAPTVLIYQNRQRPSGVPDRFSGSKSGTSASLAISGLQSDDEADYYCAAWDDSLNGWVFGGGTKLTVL
B14: ADI-21061 (antibody, V domains shown)
VH: QVQLVQSGAEVKKPGSSVKVSCKASGGTFSNYPISWVRQAPGHGLEWMGRVVPTVGLANYAQNLQGRVTITADTSTNTVYMELRSLRSEDTGLYYCARRAVVDTYAFDIWGQGTLVTVSS
VL: QSALIQPASVSGFPGQSITISCTGASSDVGGYNFVSWYQQHPGKAPKLIIYEVTKRPSGVSNRFSGSESGNTASLTISGLQAEDEADYYCSSFRYTSSIVYVFGSGTKVTVL
B15: ADI-21022 (antibody, V domains shown)
VH: EVQLVETGPGLVKPSETLSLTCSVSGGSISSYYWSWLRQPPGKGLEWIGYIYNSGRTNYNPSLRSRVTISVDTSQNQFSLRLGSVTAADTAVYYCARGGAGDDLLRGSYRYLNFWGQGTLVTVSS
VL: QSVLTQPPSVSVAPGQTARITCGGNNIGSKSVHWYQQKPGQAPVLVVYDDTERPSGIPERISGSNSGNTATLTISRVEAGDEADYYCQVWDSSSDHPDLLFGGGTKLTVL
B16: ADI-36670 (antibody, V domains shown)
VH: QVQLVQSGAEVKKPGSSVKVSCKASGGTFSTYTINWVRQAPGQGLEWMGRITPSLGVPLSAQKFQGRITISADKSTTTAYMELSSLGSEDTAVYYCASLNYYDTTDYYLGYSDSWGQGTLVTVSS
VL: DIVLTQTPATLSVSPGERATLSCRASHSVSNNLAWYQQKPGQAPRLLIYSASTRATGIPARFSGRGSGTEFTLTISSLQPEDFAVYYCQQYNNWPPEYTFGQGTKVDIK
B17: ADI-36674 (antibody, V domains shown)
VH: EVQLLESGGGLVKPGGSLRLSCAASGFKFRSYSMNWVRQAPGKGLEWVSSISSSSSYVDYAGSLKGRFTISRDNAENSLYLQMNSLRAEDTAMYYCARAGSVPVAGTYNDYWGQGTLVTVSS
VL: QSVLTQPPSVSGAPGQRVTISCTGSSSNIGAGYDVHWYQHLPGTAPKLLIHGNNNRPAGVPDRFSGSKSGTSASLVITGLQADDEADYYCQSYDRSLSVLFGGGTKVTVL

Positions count from the first letter of the chain named.

The first assay addresses T1, RSV postfusion F (postF), subtype A (respiratory syncytial virus, subtype A, UniProt P03420 26-513).
T1 construct: also called F ΔFP; Postfusion subtype A
As to the kind of experiment: BLI, IgG. On the technique in general: BLI is a label-free optical method that tracks binding on a fibre tip over time.
In turn, B1 yielded an equilibrium dissociation constant (Kd) of 0.187 nM.

In the case of B2, binding was put at a Kd of 0.248 nM.

For B3, the dissociation constant (Kd) is 0.24 nM.

Regarding B4, the Kd came out at 1.65 nM.

In turn, B5 displayed a Kd of 0.287 nM.

Molecule B6 returned a Kd of 0.372 nM.

As to B7, the Kd worked out at 0.162 nM.

Turning to B8, the Kd came out at 0.214 nM.

For B9, binding was characterised by a dissociation constant (Kd) of 0.29 nM.

The molecule B10 came in with a Kd of 0.945 nM.

In turn, B11 registered a Kd of 0.236 nM.

Turning to B12, the Kd turned out to be 0.154 nM. Against the preceding molecule, the Kd is about 1.5-fold lower.

B13 had a Kd of 0.185 nM.

On to B14, for which binding was characterised by a dissociation constant (Kd) of 0.142 nM.

As for B15, the dissociation constant (Kd) worked out at 0.256 nM.

The target in another assay is RSV prefusion F (preF), subtype A (respiratory syncytial virus, subtype A, UniProt P03420 26-513). Briefly: BLI, IgG.
On to B1, for which binding was characterised by a dissociation constant (Kd) of 1.66 nM.

The molecule B2 had a dissociation constant Kd of 1.95 nM.

Take B3: binding was put at a Kd of 1.71 nM. This Kd and that of the molecule before are within 1.5-fold of each other.

For the molecule B4, the dissociation constant (Kd) was 0.111 nM. Against the preceding molecule, the Kd is about 15-fold lower.

For B5, the dissociation constant (Kd) was determined as 2.96 nM.

B6 had a Kd of 0.185 nM.

For B7, the Kd stood at 1.41 nM.

B8 displayed a dissociation constant (Kd) of 0.371 nM.

As to B9, the dissociation constant Kd was 2.11 nM.

Molecule B10 had a dissociation constant Kd of 6.35 nM.

B11 returned a Kd of 1.24 nM.

B12 gave a dissociation constant (Kd) of 0.182 nM.

B13 displayed a Kd of 1.1 nM.

B14 displayed a dissociation constant Kd of 1.1 nM.

As for B15, the binding result was “no binding”.

The target of the next assay is T2, RSV postfusion F (postF), subtype B (respiratory syncytial virus, subtype B).
T2 construct: also called F ΔFP; Postfusion subtype B
Briefly: BLI, IgG.
Take B1: the Kd was 0.224 nM.

B2 had a Kd of 3.17 nM.

B3: the equilibrium dissociation constant (Kd) was determined as 6.31 nM. Against the preceding molecule, the Kd is about 2-fold higher.

In the case of B4, binding was put at a Kd of 1.93 nM.

For B5, the dissociation constant (Kd) amounted to 0.398 nM.

With B6, the Kd came out at 0.306 nM.

In turn, B7 had a Kd of 0.356 nM.

The molecule B8 came in with a Kd of 0.28 nM.

The molecule B9 came in with an equilibrium dissociation constant (Kd) of 0.262 nM.

As to B10, binding was put at a Kd of 1.43 nM.

In turn, B11 displayed a dissociation constant (Kd) of 0.417 nM. This Kd lies about 3.4-fold lower than the previous one.

For B12, the Kd was found to be 0.168 nM. This Kd lies about 2.5-fold lower than the previous one.

In turn, B13 came in with a Kd of 4.35 nM.

The molecule B14 gave a Kd of 2.48 nM. Against the preceding molecule, the Kd is about 1.8-fold lower.

In turn, B15 displayed an equilibrium dissociation constant (Kd) of 0.357 nM.

Another assay deals with RSV prefusion F (preF), subtype B (respiratory syncytial virus, subtype B). As to the kind of experiment: BLI, IgG.
In turn, B1 displayed a Kd of 0.694 nM.

Turning to B2, the equilibrium dissociation constant (Kd) turned out to be 4.81 nM. This Kd lies about 6.9-fold higher than the previous one.

B3: the Kd is 12.7 nM. This Kd lies about 2.6-fold higher than the previous one.

For B4, the Kd came to 0.154 nM.

As to B5, the Kd came out at 1.18 nM.

B6 displayed an equilibrium dissociation constant (Kd) of 0.139 nM.

The molecule B7 yielded a dissociation constant Kd of 0.982 nM. Against the preceding molecule, the Kd is about 7.1-fold higher.

The molecule B8 registered an equilibrium dissociation constant (Kd) of 1.92 nM.

On to B9, for which the dissociation constant Kd was determined as 0.756 nM.

In turn, B10 showed a Kd of 3.99 nM.

Molecule B11 displayed an equilibrium dissociation constant (Kd) of 0.827 nM.

As for B12, the Kd came to 0.962 nM.

B13 gave a Kd of 2.98 nM.

In turn, B14 had a Kd of 2.76 nM. The Kd values of the last two molecules are within 1.5-fold of each other.

In turn, B15 registered a dissociation constant Kd of 17.4 nM.

The target in another assay is RSV F on RSV subtype A virus (RSV-A2) (Respiratory Syncytial Virus, subtype A, …, UniProt P03420 26-574). Briefly: cell-based or functional assay.
On to B16, for which the “Neutralization - RSV A2 IC50 (pM)” value was 141 pM and the “neut IC50 (ug/ml) subtype A (wright)” value is 0.008 µg/mL.

As to B17, the “Neutralization - RSV A2 IC50 (pM)” value came to 190 pM and the “neut IC50 (ug/ml) subtype A (wright)” value is 0.014 µg/mL.
